Literature values in PMC3184957, “Improving a Natural CaMKII Inhibitor by Random and Rational Design” (PLoS ONE, 2011).

Molecular target: T1, CaMKIIα (Rattus norvegicus, UniProt P11275)
T1 construct: made in house; host or cells: baculovirus/Sf9 (CaMKII); bacteria (CaM)
Conditions: background statement of the abstract, no reference given; read-out: IC50 of CaMKII inhibition by CaM-KIIN
Experimental: Background CaM-KIIN has evolved to inhibit stimulated and autonomous activity of the Ca^2+/calmodulin (CaM)-dependent protein kinase II (CaMKII) efficiently, selectively, and potently (IC50 ∼100 nM). The CN class of peptides, derived from the inhibitory region of CaM-KIIN, provides powerful new tools to study CaMKII functions. The goal of this study was to identify the residues required for CaMKII inhibition, and to assess if artificial mutations could further improve the potency achieved during evolution. Methodology/Principal Findings First, the minimal region with full inhibitory potency wa ...

IC50: ~100 nM
B1: CaM-KIIN: natural CaMKII inhibitor protein expressed in brain (protein, UniProt Q7Z7J9 1-78, looked up)
Calcium/calmodulin-dependent …: MSEVLPYGDEKLSPYGDGGDVGQIFSCRLQDTNNFFGAGQNKRPPKLGQIGRSKRVVIEDDRIDDVLKNMTDKAPPGV
